Consider 9 molecules from paper PMC12868882, “Held out wings RNA binding activity in the cytoplasm during early spermatogenesis”.

T1: HOW-STAR (STAR domain of Held out wings) (Drosophila melanogaster, UniProt O01367 72-266)
T1 sequence: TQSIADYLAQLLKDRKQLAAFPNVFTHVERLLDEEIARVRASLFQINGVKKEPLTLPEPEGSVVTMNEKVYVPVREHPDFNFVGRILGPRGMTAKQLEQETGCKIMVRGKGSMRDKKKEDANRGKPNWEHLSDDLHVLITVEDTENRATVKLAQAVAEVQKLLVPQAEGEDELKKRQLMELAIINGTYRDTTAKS

B1: Jvl (ssRNA)
RNA: GUUGGCGUGUUUU
B2: Hipk-RA (ssRNA)
RNA: AGCAGCUAACAAUU
B3: Hipk-RA G5C (ssRNA)
RNA: AGCACCUAACAAUU
B4: Lola (ssRNA)
RNA: ACACACUAACUCGU
B5: Hipk-RA G5U (ssRNA)
RNA: AGCAUCUAACAAUU
B6: Lola + half-site (ssRNA)
RNA: ACACACUAACUCGUAACUAUG
B7: Hipk double motif (ssRNA)
RNA: UACAACUAACAACUAACAGAU
B8: Hipk-RA G5A (ssRNA)
RNA: AGCAACUAACAAUU
B9: Hipk-RA A8G (ssRNA)
RNA: AGCAGCUGACAAUU

The first data set deals with T1, HOW-STAR (STAR domain of Held out wings). Put plainly: fluorescence anisotropy; apparent KD; text: did not bind in the low nanomolar range; RNA binding buffer: 20 mM Tris-HCl pH 7.5, 150 mM NaCl, 0.01% Triton X-100; 20 uL of 5 nM labelled RNA in about 60 uL; at least 45 min equilibration; temperature not stated. The following applies: protein: recombinant; tags: His6-GST removed by 3C protease; chain copies: 2; label: 3' 6-carboxyfluorescein.
With B1, the Kd was determined as 803 nM.

For a further data set the target is unchanged. In words: fluorescence anisotropy; apparent KD; RNA binding buffer: 20 mM Tris-HCl pH 7.5, 150 mM NaCl, 0.01% Triton X-100; 20 uL of 5 nM labelled RNA in about 60 uL; at least 45 min equilibration; temperature not stated. As to conditions: protein: recombinant; tags: His6-GST removed by 3C protease; chain copies: 2; label: 3' 6-carboxyfluorescein. In general terms: Polarisation of emitted light reports the rotation of a fluorescent probe.
Turning to B2, the Kd came out at 10.1 nM.

On to B3, for which the Kd was 20.4 nM.

Turning to B4, the Kd turned out to be 6.05 nM.

In the case of B5, the Kd came to 12.4 nM.

Regarding B6, the Kd was found to be 9.25 nM.

For the molecule B7, the Kd came to 7.46 nM.

With B8, the Kd stood at 4.65 nM.

With B9, the Kd turned out to be 85.3 nM.
